The assay concerns the target EGFRvIII (表皮生长因子受体III型突变体) (human) (UniProt P00533). The experiment in a line: flow cytometry; antibody supernatant on EGFRvIII-PBMC engineered cells, detected with anti-mouse-APC IgG. (In flow cytometry, cells or beads pass a laser one at a time.)

B1: Anti EGFRvIII抗体 (抗EGFRvIII单克隆抗体) (antibody, V domains shown)
VH: QVQTQQSGTELVRPGALVKLSCKPSGFNIKDYYMHWVKQRPEQGLEWIGWIDPENGKTKYAPKFQGKAIITADRSSNTAYLQLSSLTSEDTAVYYCAGTADWGQGTTVTVSS
VL: DIQLTQSPLTLSVSIGQPASISCKSSQSLLHSDGETYLNWLLQRPGQSPKRLIYLVSKLDSGVPDRFTGTGSGTDFTLKISRVEAEDLGVYYCWQGKHFPYTFGGGTKLEI
On to B1, for which the 结合率 (APC阳性比率) stood at 93.7%.
